For test [1], the target named is T1, IGF-I F25A (purified, soluble) (human, UniProt P05019 49-118).
T1 construct: made from the wild-type template pBKIGF2B-f1-ori
Kind of test: BIACORE; KD mut/KD wt. As to the method:
(§1) Carboxymethylated dextran biosensor chips (CM5, BIAcore Inc.) were activated with EDC (N-ethyl-N′-(3-dimethylaminopropyl)-carbodiimide hydrochloride) and NHS (N-hydroxysuccinimide) according to the supplier's instructions. For immobilization, IGF mutants in 20 mM sodium acetate, pH 4.8, were injected onto the biosensor chip at a concentration of 50 μg/ml to yield approximately 450-600 RU's (resonance-response units) of covalently-coupled protein. Unreacted groups were blocked with an injection of 1 M ethanolamine. […] Association rates (kₐ) and dissociation rates (kd) were calculated separately using a 1:1 Langmuir™ association model in the BIACORE™ evaluation software v. 3.0. The equilibrium dissociation constant (KD) was calculated as kd/kₐ.
A general note: SPR reads the build-up and loss of mass on a sensor chip optically.

In test [2] the target is T2, F49A IGF-I (purified, soluble) (human, UniProt P05019 49-118).
T2 construct: made from the wild-type template pBKIGF2B-f1-ori; also called F49A IGF variant
The experiment in a line: BIACORE; KD mut/KD wt. How it is done:
as §1

Test [3] concerns the target T3, IGF-I F16A (purified, soluble) (human, UniProt P05019 49-118).
T3 construct: made from the wild-type template pBKIGF2B-f1-ori; also called IGF-F16A; FI6A
The experiment in a line: BIACORE; KD mut/KD wt. As to the method: as §1

In test [4] the target is T4, IGF-I T4A (purified, soluble) (human, UniProt P05019 49-118).
T4 construct: made from the wild-type template pBKIGF2B-f1-ori
Kind of test: BIACORE; KD mut/KD wt. As to the method:
as §1

The target of test [5] is T5, IGF-I V11A (purified, soluble) (human, UniProt P05019 49-118).
T5 construct: made from the wild-type template pBKIGF2B-f1-ori
Kind of test: BIACORE; KD mut/KD wt. How it is done:
as §1

Test [6] has as its target T6, wild-type human IGF-I (purified, soluble) (human, UniProt P05019 49-118).
T6 construct: immobilized on the biosensor chip by amine coupling in BIACORE experiments; also called IGF-I WT
Kind of test: BIACORE; KD mut/KD wt. As to the method:
as §1

The target of test [7] is IGF-I G1S-A70V (purified, soluble) (human, UniProt P05019 50-117). The experiment in a line: BIACORE; KD mut/KD wt. As to the method: as §1
The target in test [8] is T7, IGF-I P39A (purified, soluble) (human, UniProt P05019 49-118).
T7 construct: made from the wild-type template pBKIGF2B-f1-ori
The experiment in a line: BIACORE; KD mut/KD wt. How it is done: as §1

Test [9] has as its target T8, IGF-I R36A (purified, soluble) (human, UniProt P05019 49-118).
T8 construct: made from the wild-type template pBKIGF2B-f1-ori
The experiment in a line: BIACORE; KD mut/KD wt. As to the method: as §1

Test [10] concerns the target T9, IGF-I P28A (G1S-A70V background) displayed on phage (human; bacteriophage M13).
T9 construct: monovalent M13 phage display; not shown: M13 gene III fragment (residues 249-406, display partner) and the junction to it
T9 chain: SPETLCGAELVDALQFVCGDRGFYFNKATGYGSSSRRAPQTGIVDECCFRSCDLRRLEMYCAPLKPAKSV
The experiment in a line: competitive phage ELISA. As to the method: (§2) Phage particles were harvested and resuspended in PBS buffer as described in Lowman, H. B., “Phage Display of Peptide Libraries on Protein Scaffolds,” in Cabilly, S. (ed.), Combinatorial Peptide Library Protocols (Humana Press Inc.: Totowa, N.J., 1998), pp. 249-264. Then phage concentrations were normalized to yield a maximal ELISA signal of 0.2-0.4 for each mutant (Lowman, in Cabilly, S. (ed.), supra). Threefold serial dilutions of soluble competitor were prepared on non-absorbent microtiter plates (Nunc, F, 96 wells) with binding buffer (0.5% TWEEN™ 20/PBS) containing phage at the previously-determined concentrations. […] After blocking, the plates containing immobilized target were washed with 0.05% TWEEN™/PBS buffer and subsequently incubated with 80 μl/well of the premixed phage-competitor solutions for 1 hour at room temperature. After washing, bound phage was detected with 80 μl/well of a solution containing a primary rabbit anti-phage polyclonal antibody and a secondary goat anti-rabbit monoclonal antibody-horseradish peroxidase conjugate in 0.5% TWEEN 20™/PBS. o-Phenylenediamine (Sigma) and tetramethylbenzidine (Kirkegaard and Perry) were used as chromogenic substrates, resulting in product detection at 492 and 450 nm, respectively. IC₅₀ values were determined by fitting the binding data to a generic saturation curve (Lowman, in Cabilly, S. (ed.), supra). […] Numbers in Table I represent mean +standard deviation of individually assessed IC₅₀ values.
(§3) At least two different clones of every mutant were tested.
On the technique in general: An ELISA detects its analyte on a solid surface through an enzyme-linked reagent.

Test [11] has as its target T10, IGF-I S1G (G1S-A70V background) displayed on phage (human; bacteriophage M13, UniProt P69168 267-424).
T10 construct: range 249-406; monovalent M13 phage display
The experiment in a line: competitive phage ELISA. How it is done:
as §2, §3

Test [12] has as its target T11, IGF-I E46A (G1S-A70V background) displayed on phage (human; bacteriophage M13).
T11 construct: monovalent M13 phage display
T11 chain: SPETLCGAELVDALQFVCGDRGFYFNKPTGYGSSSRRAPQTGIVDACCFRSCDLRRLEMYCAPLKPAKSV
Kind of test: competitive phage ELISA. As to the method:
as §2, §3

Test [13] deals with T12, IGF-I G1S-A70V displayed on phage (human; bacteriophage M13).
T12 construct: monovalent M13 phage display; template of the alanine scan; also called G1S-A70V IGF-I; wild-type-like IGF-I variant; not shown: M13 gene III fragment (residues 249-406, display partner) and the junction to it
The experiment in a line: competitive phage ELISA (FIG. 1). How it is done: Then phage concentrations were normalized to yield a maximal ELISA signal of 0.2-0.4 for each mutant (Lowman, in Cabilly, S. (ed.), supra). Threefold serial dilutions of soluble competitor were prepared on non-absorbent microtiter plates (Nunc, F, 96 wells) with binding buffer (0.5% TWEEN™ 20/PBS) containing phage at the previously-determined concentrations. […] After blocking, the plates containing immobilized target were washed with 0.05% TWEEN™/PBS buffer and subsequently incubated with 80 μl/well of the premixed phage-competitor solutions for 1 hour at room temperature. After washing, bound phage was detected with 80 μl/well of a solution containing a primary rabbit anti-phage polyclonal antibody and a secondary goat anti-rabbit monoclonal antibody-horseradish peroxidase conjugate in 0.5% TWEEN 20™/PBS. o-Phenylenediamine (Sigma) and tetramethylbenzidine (Kirkegaard and Perry) were used as chromogenic substrates, resulting in product detection at 492 and 450 nm, respectively. IC₅₀ values were determined by fitting the binding data to a generic saturation curve (Lowman, in Cabilly, S. (ed.), supra). […] Numbers in Table I represent mean +standard deviation of individually assessed IC₅₀ values.

T1 sequence (P05019 49-118 F73A): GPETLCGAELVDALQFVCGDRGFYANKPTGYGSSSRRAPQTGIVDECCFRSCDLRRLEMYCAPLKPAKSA
T8 sequence (P05019 49-118 R84A): as the sequence (P05019 49-118 F73A) above, with A25F, R36A counted along it
T2 sequence (P05019 49-118 F97A): as the sequence (P05019 49-118 F73A) above, with A25F, F49A counted along it
T7 sequence (P05019 49-118 P87A): as the sequence (P05019 49-118 F73A) above, with A25F, P39A counted along it
T4 sequence (P05019 other isoform, or with tags, fused parts or gaps): as the sequence (P05019 49-118 F73A) above, with T4A, A25F counted along it
T6 sequence (P05019 49-118): as the sequence (P05019 49-118 F73A) above, with A25F counted along it
T5 sequence (P05019 49-118 V59A): as the sequence (P05019 49-118 F73A) above, with V11A, A25F counted along it
T3 sequence (P05019 49-118 F64A): as the sequence (P05019 49-118 F73A) above, with F16A, A25F counted along it

B1: human IGFBP-1 (other, UniProt P08833 26-259, looked up)
chain: APWQCAPCSAEKLALCPPVSASCSEVTRSAGCGCCPMCALPLGAACGVATARCARGLSCRALPGEQQPLHALTRGQGACVQESDASAPHAAEAGSPESPESTEITEEELLDNFHLMAPSEEDHSILWDAISTYDGSKALHVTNIKKWKEPCRIELYRVVESLAKAQETSGEEISKFYLPNCNKNGFYHSRQCETSMDGEAGLCWCVYPWNGKRIPGSPEIRGDPNCQIYFNVQN
notes: secreted recombinant protein purified from conditioned medium
One may read the IC50 as the point on the concentration scale where inhibition reaches its midpoint. Low readings indicate greater potency in that assay, high ones weaker potency in that assay. As to B1, the “relative KD” value was found to be 25 in test [1]; 70 in test [2]; 25 in test [3]; 6.9 in test [4]; 5.1 in test [5]; 1 in test [6]. The figures for the “relative KD” value in test [7], in [8] and in test [9] were 1.1, 1 and 1.1, respectively. Besides, the IC50 in [10] amounted to 9.3 nM; in [11] it was 11.2 nM; in [12] it was 7.9 nM; in test [13], 8.5 nM.

These data come from US20020160955A1 (published 2002).
